The record followed here is US10155985B2, “Evaluation of eosinophilic esophagitis” (CHILDREN'S HOSPITAL MEDICAL CENTER, priority 2004, dated 2018).

Sequences and labels used below:
B1: SEQ_ID_#915 (nucleic acid, listed as Homo sapiens)
DNA: CAATAGGAGAAGCCAAGAAACGCAGATGCCGATGCTTAATCAACTCCGTCTCTCCCTCTAGTGACTCGGGGATAGCTGCCCTGATGCCAAGGCGATTGTCTTCTGGAAGCAGCCACGCCGTGTGAGGTTCCTCATCACTGCCCTGCATCTCCCTGCGAGCTCTCGGGGATAATTGCAAAATCACGTTTGATTCCAGGGAGCAGAAAGCAGCAGGAGCCGTGAATTCTCCAACTCTTAACTGGTCCTCGACTGAGCCACTTTTCCCTGCCCACCCATCCCTGTGGCGGATTCATTACAGTTATCCAAAGCCGGTTTTAACTTTGCTCCCCCTGGCTCAGAAGTCTGTCAGTGGGTCCTGAGCGGTTCACCATTCAAGTTTATTCCTATCAGCCTGGAATACAATGCTCTATCTG
B2: SEQ_ID_#840 (nucleic acid, listed as Homo sapiens)
DNA: TACCACACATCTTCTTTATTAATGCATTGACAATCAGTGAAGACAATGAAAACCCACCACTTTTGTCCGTGAACTGAGAAAGAAAATGGCAATGTCATATGGCATTAATGATGCATGAGATCTATGGGTGTAGTGTCACGTCTAGGCGTGTAGTAATCCAGTCTTCGGCCTTACTCCAGGGAGAAAGATTCAGCTTTGTTACTTTCCAGTCACTCTCTCCCGTAACACAGCACCAAGACCGTTTAAAGCACTTAATTAATTCACTTCAGCTTCGCTGGAGAGGTCTCAGGGTTCCCGAGACTCCATTACATAATATCTTTCACAAAGTCTATTCCCAGCTCGAATGGAAGATGGATTCTCATCCAGTGTGCGG
B3: SEQ_ID_#808 (nucleic acid, listed as Homo sapiens)
DNA: TTTCACTATAGAAAACCTTTAATAACAACTTCAGATTTACATGACCCTTCTGGTGCTCAGAACACTATGGATTAACACACACACTGGAAAGATACAGACACAGGAATCTGCTGCATTACCCCAAATGGCAAAGTCTTGACTGGGGCTTCAGCTCCTTTCCCAATCCAAAATTGGCACCTTTTTCCATGGAAATTCAAACTGCATCTCTAAATGATGGGGTACATGAACTGTCTGTTTCAAAAGTATTTAAAAACAAACAGGAAGTACAGCTTCCATTTCATTAAGAAAACACCACCACAAGACATGGTGCAGTATCTACTAGCTTAAAGTTTATCACTCCATTAGGGCTTATTGACAGCAGAAATGTGAATGTAGTAATGTAGAAATAAGGAAGAGAGCACTTAAGAAAAAAACAGTACAGAAGTTTTAGAGTTTTTTAAACTTTAATAATATGCTTGACTAATATAGTCAAAAGTGATATGCACTCGTGAAATTAACCCATTTTCTGAAGTCCAAATTAGCTATTAAAGTCTTTTTTTACCAAAAACATATAAGGATTTAGTACACTATATAGATTACATAGCTTTCCT
B4: SEQ_ID_#906 (nucleic acid, listed as Homo sapiens)
DNA: TGCTTTTGTTGTTGTTTTTAATTTAAAAAGACAAAATTGTTCGCCTTGTATAGAAGTAGATACAGCTTAGAGAGCCAAGGTAACAAGAGGGGAAAAGTTTGTGTTGTCTGGTACTTTTGAGGGAGTCAGAAGCCTAAAGGGAGGCTCTAACTCATGATTCTCAGAAGACAACTGTTGTCAACAGTTCAAATGAGAACTGAACGGCCACACTCCTGCAGCTGAAAGGAGTCAATGCGAGCTGAGTTGCTCTCACCGAACAGAGTGCGTTCCCCGGGGAGGCAGGGAAAGGCCGGCTTGCACCTGCTCTGTCACCCAGCTCCACTCTTAGGACAGAAGAGGTCTGGAAAATGTCTGGG
B5: SEQ_ID_#909 (nucleic acid, listed as Homo sapiens)
DNA: B4 DNA
B6: SEQ_ID_#917 (nucleic acid, listed as Homo sapiens)
DNA: TTGTTTGGAAAGATGAAAAATTTATTAGAAAAGATCTTTAAATGGCTTTTACTAAAGCGTCATTTAACAATTTTTCATATTATAGAAACAGCTTTTCATGGATGGTGTGACTGGGTCTGTATCCAAACCCGGTTCGGTTCCTGGAGCCAACGGCGTAGTTAACACTCAGCCTCTTGCAGTTAACACTCAGCCTCTTAACTGGGAGTGGCCCTGGAGCAAGTCGCTGGAATGTTCAAGCTCCGCGTCACTCATCGGTACCAAGTTGATGATCTCTGCCTAGGGTTCTTCGCCACCCTCAGGCTCAAGTCCCAGGAGGCCTCCTCCGCTGACTTGGGTGAACAGCTCTGAGTTCCGGAGAGGGTTCGGTCTGCGGAGAAGCGCGCGAGAGACAAGCATCCTCAAGGTTCTGGTACAAAATTTGGAAAATGACCTGGCGTTGAAATCTTTACTCCTCGTTTAAAAAGACCATCGAAAGGGAAAAAATAAAAGAAATTGCAGTTTATATTTTTGTTATCCCATGAAAAATTAGCTGCAGTGTTTTCCTCTTCATGCCAAAGAGATTAATATTTACGGTGAAGACTTTTCCAGGAAGTCGTGGTTTTCTGGGGCCCTGCCTCTGAGCCTTTTGTTTCCTCCTTTTTAAAAACACCGGATGAAAGACCCAGTGTGCCTTGGATCGCAGAGCGCGGCCGCATGTCTGCTTTGA
B7: SEQ_ID_#807 (nucleic acid, listed as Homo sapiens)
DNA: TTAGCATTTTTAAATTTTATTATGACTTCATTTGTTTAAATATATATATATATATATATATATATATTTATTTATAGCTCTATGTGCCCACCGCCCCCGGCCCCCTCCCCGGCCCCTAGTTTTTCCCCCTGGCTTTCTGTCTAGTGGCTGTGTAGGGCAGAACCGTCTGCGTGCTCTTGTCTGACACTGTCTGGGTGCTGCTGTTCCTCGTGACCCTTCGAGTCTGTTCAGGGGCCAAGGTAGAGCCTGAGTGGCGGCTGGTCAGTGGAGAGCGCCGTGACTTGTAGGGGGCTGGGGAGGGCTTGTGGGGGCCTGCATGGGCCTCTGTATGGGCAGGCTCAGGGGGCAAGCCCACTTCTTCCTCCTCCACCTCCTGCTCACCGTCCCCCTCCTCATCGTC
B8: SEQ_ID_#901 (nucleic acid, listed as Homo sapiens)
DNA: CTCCTCGCCCTCCCCACCGACATCATGCTCCAGTTCCTGCTTGGATTTACACTGGGCAACGTGGTTGGAATGTATCTGGCTCAGAACTATGAT
modifications: chemistry not fully specified; the letters are possibly those of the target site

In this series the test system is EE transcriptome. In words: Genome-wide microarray transcript profiling of esophageal biopsies, EE patients vs normal individuals (EE transcriptome). The settings on record: transcript level in esophageal biopsies of EE patients compared to normal individuals (NL); Affymetrix Human Genome U133 plus 2; p<0.01; >1 up-regulated, <1 down-regulated. As to the method: Esophageal tissue obtained from patients previously diagnosed with EE was analyzed. Diagnosis was based on analysis of excised tissue from endoscopic biopsy. Tissues from patients with EE, as well as patients not having EE (controls) were subjected to genome-wide microarray transcript profiling (Affymetrix GeneChip). All work was performed at the Core facility at Children's Hospital Medical Center (Cincinnati Ohio).
Briefly, RNA quality was first assessed using the Agilent bioanaiyzer (Agilent Technologies, Palo Alto Calif.). Only mRNA having a ratio of 28S/18S between 1.3 and 2 were subsequently used. RNA was converted to cDNA with Superscript choice for cDNA synthesis (Invitrogen, Carlsbad Calif.) and subsequently converted to biotinylated cRNA with Enzo High Yield RNA Transcript labeling kit (Enzo Diagnostics, Farmingdale N.Y.). After hybridization to the GeneChip (Affymetrix, Santa Clara Calif.), the chips were automatically washed and stained with streptavidin-phycoerythrin using a fluidics system. The chips were scanned with a Hewlett Packard GeneArray Scanner. Over 30,000 unique genes were screened.
Levels of gene transcripts were determined from data image files, using algorithms in the Microarray Analysis Suite software (Affymetrix). Levels from chip to chip were compared by global scaling. Each gene was typically represented by a probe set of 16 to 20 probe pairs. Each probe pair consisted of a perfect match oligonucleotide and a mismatch oligonucleotide that contained a one base mismatch at a central position. Two measures of gene expression were used, absolute call and average difference. Absolute call is a qualitative measure in which each gene is assigned a call of present, marginal or absent, based on the hybridization of the RNA to the probe set. Average difference is a quantitative measure of the level of gene expression, calculated by taking the difference between […] of every probe pair and averaging the differences over the entire probe set. Data were normalized and an EE transcriptome gene list was created with results having p<0.01 (Welch t-test with or without false rate discovery) and ≥1.5-fold change.
For evaluation of EE using clinical and/or physical assessment, biopsy tissues (obtained from the distal esophagus during routine endoscopy) were submerged in formalin for routine pathological analysis with hematoxylin and eosin staining. Diagnosis was established based on the maximum eosinophil count per high power field (hpf) and basal layer expansion according to method known in the art (e.g., established criteria in Rothenberg et al., Pathogenesis and clinical features of eosinophilic esophagitis. J Allergy Clin Immunol 108 (2001) 891; Attwood et al., Esophageal eosinophilia with dysphagia. A distinct clinicopathologic syndrome. Dig Dis Sci 38 (1993)109; Fox et al., Eosinophilic esophagitis: its not just kid's stuff. Gastrointest Endosc 56 (2002) 26, each of which is expressly incorporated by reference herein in its entirety. Normal individuals (NL), n=13, served as a control and were defined as having 0 eosinophils/hpf and no basal layer expansion. Individuals with EE (n=76) were defined as having >24 eosinophils/hpf and extensive basal layer hyperplasia (expansion to about >⅓ of epithelium).
The data were analyzed by cluster analysis and ordered (standard correlation (A) and distance (B)) using Genespring software. […] Each column represented a separate individual and each line a gene. RNA from each patient was subjected to chip analysis using Affymetrix Human Genome U133 GeneChip plus 2.
On to B1, for which the “Fold Change” value amounted to 0.638.
B2: the “Fold Change” value is recorded as 0.665.
As to B3, the “Fold Change” value is listed as 1.513.
As for B4, the figure is 0.64; as for B5, 0.639.
On to B6, for which the “Fold Change” value is recorded as 0.637.
Turning to B7, the “Fold Change” value is recorded as 1.514.
As for B8, the “Fold Change” value was determined as 0.643.
